From patent US20190202912A1 (NEXTCURE, published 2019)

T1: S15-extra cellular domain (ECD) monomer (human, UniProt Q6ZMC9 20-263)
T1 construct: also called S15 monomer protein
T1 sequence: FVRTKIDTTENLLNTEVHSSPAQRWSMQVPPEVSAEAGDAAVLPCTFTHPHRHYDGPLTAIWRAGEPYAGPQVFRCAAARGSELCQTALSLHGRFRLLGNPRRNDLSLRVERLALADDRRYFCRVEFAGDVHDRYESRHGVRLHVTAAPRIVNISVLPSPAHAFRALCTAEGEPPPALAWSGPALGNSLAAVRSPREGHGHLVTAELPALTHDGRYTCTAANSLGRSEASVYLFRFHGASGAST

T2: hS15 (Homo sapiens, UniProt Q6ZMC9)
T2 construct: full length, cell surface; also called human Siglec-15; huS15
T2 sequence (membrane protein on cells, looked up): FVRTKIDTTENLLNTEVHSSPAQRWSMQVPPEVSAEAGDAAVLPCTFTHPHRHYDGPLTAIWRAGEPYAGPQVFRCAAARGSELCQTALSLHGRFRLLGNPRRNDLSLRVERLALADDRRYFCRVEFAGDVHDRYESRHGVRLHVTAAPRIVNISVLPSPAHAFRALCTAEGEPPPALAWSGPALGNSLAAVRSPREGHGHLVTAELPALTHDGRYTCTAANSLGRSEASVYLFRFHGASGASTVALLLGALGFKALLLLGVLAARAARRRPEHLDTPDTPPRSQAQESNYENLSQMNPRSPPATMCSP


Assays:
mS15 = target: T3, mS15 (Mus musculus); experiment: flow cytometry titration, 293T cells transfected with mouse Siglec-15 (293T.mS15)
T3 construct: full length, cell surface; also called mouse Siglec-15
Description: […] Cells were incubated at 4 degrees C. for 30 minutes, then washed twice with excess FACS buffer. Cells were resuspended in 100 ul FACS buffer and 0.005 ug of anti-mouse IgG-PE secondary antibody was added to samples, incubated for 30 minutes and washed twice with excess FACS buffer. Cells were fixed in fixation buffer (2% formaldehyde in PBS) and subsequently analyzed by flow cytometry.

[1] = target: T1, S15-extra cellular domain (ECD) monomer; experiment: BLI (Octet RED96), mAb on anti-human Fc sensors, S15-ECD monomer in solution, global fit
Description: Optimized KD experiments were performed on a ForteBio Octet RED96 instrument using anti-human Fc capture (AHC, 18-5060; ForteBio) sensors. Assay buffer was PBS containing 0.05% Tween-20 and regeneration buffer was 10 mM glycine (pH 1.5). First the antibodies were loaded at 1 μg/mL for 600 seconds. This was followed by a 60 second baseline step, a 300 second association step in S15-extra cellular domain (ECD) monomer, and finally a 1200 second dissociation step. The monomer concentrations ranged from 100 nM to 1.56 nM in a two-fold dilution series and a blank well was included. Data was processed using ForteBio's Data Analysis Software 7.0; a global fit was used, along with reference well subtraction. Reported values are the average of at least three independent octet runs.

hS15 = target: T2, hS15; experiment: flow cytometry, live 293T.hS15 cells, 1 µg mAb/1E05 cells/100 µL, PE secondary
Description: Cells were sorted to establish human S15 and mouse S15 stable cell lines. […] 1E05 cells in 100 μL FACS buffer were aliquoted to separate tubes and 1 μg of purified mAb was added. Cells were incubated at 4 degrees C. for 30 minutes, then washed twice with excess FACS buffer. Cells were resuspended in 100 μL FACS buffer and 0.005 μg of anti-mouse IgG-PE secondary antibody was added to samples, incubated for 30 minutes and washed twice with excess FACS buffer. Cells were fixed in fixation buffer and subsequently analyzed by flow cytometry.

Row | EC50 (read off the curve) (mS15) | Kd [1] | koff [1] | kon [1] | binding result (hS15) | Binder
1 | ~0.05 µg/mL | 0.11 nM | 3.9e-05 s⁻¹ | 359000 M⁻¹ s⁻¹ | – | 1H3 (antibody, V domains shown, Mouse anti-human Siglec-15 mAb) VH: QVQLKESGPGLVAPSQSLSITCTVSGFSLSNYGVHWVRQPPGKGLEWLVLIWSDGSTTYNSALKSRLSISKDNSKSQVFLKMNSLQTGDTAMYYCARHPYDDYSGYYYTMDYWGQGTSVTVSS VL: DIQMTQASSSLSVSLGGRVTITCKASDHINNWLAWYQQKPGNAPRLLISGATSLETGVPSRFSGSGSGKDYTLSITSLQTEDVATYYCQQYWSSPLTFGAGTKLELK
2 | – | – | – | – | binds | 9A5 (antibody, V domains shown) VH: HVQLQQSGAELARPGASVKLSCKASGYTFTSYGLIWVKQRTGQGLEWIGEIYPRSGNTYYNEKFKGKATLTADISSSTAYMELRSLTSEDSAVYFCASSSPHGDYWGQGTTLTVSS VL: not shown
3 | ~0.05 µg/mL | 0.3 nM | 0.000123 s⁻¹ | 421000 M⁻¹ s⁻¹ | – | 5G12 (antibody, V domains shown, Mouse anti-human Siglec-15 mAb) VH: QVQLQQPGAELVKPGASVKMSCKASGYTFTSYWITWVIQRPGQGLEWIGDIYCGSDTMHYNEKFKNKATLTVDTSSSTAYMQLSSLTSEDSAVYYCARWWDYGSSYDYFDYWGQGTTLTVSS VL: DIKMTQSPSSMYASLGERVTITCKASQDINSYLSWFQQKPGKSPKTLIYRANRLVDGVPSRFSGSGSGQDYSLTISSLEYEDMGIYYCLQYDEFPYTFGGGTKLEIKR
4 | – | – | – | – | binds | NC63 (antibody, V domains shown, mouse anti-human Siglec-15 mAb; also called 63A) VH: QVQLQQSGAELARPGASVKLSCKASGYTFTSYGISWVKQRTGQGLEWIGQIYPRSDNTYYNERFKGKATLTADKSSSTAYMALRSLTSEDSAVYFCAREGGPDYWGQGTTLTVSS VL: not shown
5 | – | – | – | – | binds | NC28 (antibody, V domains shown, mouse anti-human Siglec-15 mAb; also called 28A) VH: QVQLQQSGAELARPGASVKLSCKASGYTFISYGITWVKQRTGQGLEWIGEIHPRSGNTYYNENFKDRASLTADKSSSTAYMEVRSLTSEDSAVYFCARGGPGDYWGQGTTLTVSS VL: not shown
